Reference: patent US7318921B2, “Therapeutic compositions that alter the immune response” (AltaRex Medical Corp., priority 1996, dated 2008)

Experiments:
[1] = molecular target: T1, CA125 (Homo sapiens, UniProt Q8WXI7); experiment: in vitro studies, method not stated
[2] = tested on: FcγR; settings: complexed with anti-tetanus toxoid IgG; measured by TH cell activation; cited from earlier work
[3] = molecular target: T1, CA125; experiment: Inhibition of binding of patients' anti-CA125 antibodies to CA125 (solid phase); classification Ab3/Ab1c; settings: inhibitor at 10500 U/ml
Experimental: Anti-CA 125 positive samples were tested for inhibition of their binding to CA 125 (solid phase) by CA 125, MAb-B43.13 scFv, MAb-B27.1 F(ab′), or MAb M11 F(ab′). Single chain MAb-B43.13, F(ab′) MAb-B27.1, and F(ab′) M11 were used in the inhibition studies to avoid non-specific inhibition of the Fc portion of the antibody and cross-reactivity due to HAMA. To be considered to be significant, inhibition had to be at least 15%.
Thus, if the patients serum contained anti-CA125 antibodies that were inhibitable by MAb-B43.13 only, it was classified as containing Ab3; those inhibitable by MAb-B27.1 were classified as Ab1c. In other words, injecting a binding agent such as an antibody against a single epitope on a multi-epitopic antigen leads to generation of a humoral and cellular response against a different epitope on the antigen.
Method: 86 ovarian cancer patients with active disease were tested for the presence of antibodies against CA125. None of the patients had antibodies against CA125 before injection of MAb-B43.13. The patients were injected with 2 mg of MAb-B43.13 at varying time intervals (e.g., see Table 5 for some of the patients). Sera from these patients were analyzed for the presence of human anti-CA125 antibodies by their ability to bind to the CA125 [R. Madiyalakan et al, Hybridoma, 14:199-203 1995)]. […]

[4] = tested on: CA125 specific mouse T-cells; experiment: Proliferation of CA125 specific T-cells with stimulated peritoneal macrophages ([3H]-thymidine uptake); format: cell-based; settings: macrophages stimulated with agent, presented to CA125 specific mouse T-cells; 1 μug/ml of the antibody and 100 Units/ml CA125; mean of three experiments
From the text: Enhanced antigen-presentation of antigen-antibody complexes was attributed to facilitated antigen uptake via the Fcγ-receptor (macrophages, dendritic cells) or membrane-bound Ig (B cells) on professional antigen-presenting cells (APC). […] Accordingly, various professional APC can be involved in the preferential presentation of the CA125-MAb-B43.13 complex. We tested B cells with two different specificities as well as macrophages as APC: CA125-specific B cells (from mice immunized with CA125) and anti-MAb-B43.13-specific B cells (from mice immunized with MAb-B43.13). Normal B cells served as control. […] Enhanced presentation of immune complexes by macrophages and dendritic cells is mediated by preferential uptake via the FcγR. FIG. 4 confirms that CA125 is presented more efficiently by macrophages, if complexed with an antigen specific antibody.
Better cellular immune response was observed when the UV exposed antibody was presented in association with the antigen to T-cells. Thus, macrophages isolated from mouse peritoneal cavities were stimulated with native B43.13 or UV exposed B43.13 in association with CA125 and presented to CA125 specific mouse T-cells isolated from mice injected with CA125. Control experiments included stimulation of the macrophages without the antigen. […]

For MAb-B43.13 (antibody), the binding capacity (units of CA 125 per 1 ng of MAb-B43.13) [1] was 10.
In the case of tetanus toxoid, the “increase in processing and presentation of the antigen” value [2] is given as 10-1000 -fold.
With “CA125: soluble multi-epitopic tumor associated antigen of epithelial ovarian cancers” the “Inhibition, No. of Positives/Total” value ([3]; anti-CA125 positive samples of patients injected with MAb-B43.13, positive = inhibition at least 15%) was 26/28, the “Inhibition, positives (%)” value ([3]; anti-CA125 positive samples) was “(92.8) %” and the “STIMULATION INDEX” value [4] was 2.76.
